Reference: the Immune Epitope Database (IEDB)
Blank lines part the entries; values can stand above or below the sequence they belong to.

Columns and labels:
HLA-A*11:01 [1] = assay: IEDB peptide-MHC binding, purified MHC/competitive/fluorescence; ≥ and ≤ were set here for values at or beyond the usual limits of such assays
HLA-A*03:01 [2] = assay: IEDB peptide-MHC binding, purified MHC/direct/fluorescence; filed as Kd, often an IC50 or EC50 that approximates it; ≥ and ≤ were set here for values at or beyond the usual limits of such assays
HLA-A*11:01 [3] = assay: as above
HLA-A*31:01 = assay: IEDB peptide-MHC binding, purified MHC/competitive/fluorescence; filed as Kd, often an IC50 or EC50 that approximates it; ≥ and ≤ were set here for values at or beyond the usual limits of such assays
HLA-A*68:02 = assay: IEDB peptide-MHC binding, purified MHC/competitive/radioactivity; filed as Kd, often an IC50 or EC50 that approximates it; ≥ and ≤ were set here for values at or beyond the usual limits of such assays
HLA-A*02:03 = assay: as above; details: source organism: Dengue virus 2 Jamaica/1409/1983
HLA-A*02:17 = assay: as above
HLA-A*02:01 [4] = assay: as above
HLA-A*02:06 = assay: as above
HLA-A*03:01 [5] = assay: IEDB peptide-MHC binding, purified MHC/competitive/fluorescence; filed as Kd, often an IC50 or EC50 that approximates it; ≥ and ≤ were set here for values at or beyond the usual limits of such assays
HLA-A*26:01 = assay: as above
HLA-A*69:01 = assay: as above
HLA-B*51:01 = assay: as above
HLA-A*02:01 [6] = assay: as above; details: source organism: Escherichia coli 536
HLA-B*46:01 = assay: as above
HLA-B*57:01 = assay: as above
HLA-B*18:01 = assay: as above
HLA-B*15:17 = assay: as above
HLA-B*27:03 = assay: as above
HLA-B*39:01 = assay: as above
HLA-A*02:01 [7] = assay: IEDB peptide-MHC binding, purified MHC/direct/fluorescence; filed as Kd, often an IC50 or EC50 that approximates it; ≥ and ≤ were set here for values at or beyond the usual limits of such assays; details: source organism: Tetraodon nigroviridis
HLA-B*15:01 = assay: IEDB peptide-MHC binding, purified MHC/competitive/fluorescence; filed as Kd, often an IC50 or EC50 that approximates it; ≥ and ≤ were set here for values at or beyond the usual limits of such assays; details: source organism: Homo sapiens
HLA-A*24:02 = assay: IEDB peptide-MHC binding, purified MHC/competitive/fluorescence; ≥ and ≤ were set here for values at or beyond the usual limits of such assays; details: source organism: Sudan ebolavirus
HLA-A*02:01 [8] = assay: as above; details: source organism: Sudan ebolavirus
HLA-A*68:01 = assay: IEDB peptide-MHC binding, purified MHC/competitive/radioactivity; filed as Kd, often an IC50 or EC50 that approximates it; ≥ and ≤ were set here for values at or beyond the usual limits of such assays; details: source organism: Dengue virus 2 Jamaica/1409/1983
HLA-B*45:06 = assay: IEDB peptide-MHC binding, purified MHC/competitive/fluorescence; filed as Kd, often an IC50 or EC50 that approximates it; ≥ and ≤ were set here for values at or beyond the usual limits of such assays
HLA-B*15:42 = assay: as above
HLA-B*83:01 = assay: as above; details: source organism: human gammaherpesvirus 4
HLA-B*15:09 = assay: IEDB peptide-MHC binding, purified MHC/direct/fluorescence; filed as Kd, often an IC50 or EC50 that approximates it; ≥ and ≤ were set here for values at or beyond the usual limits of such assays; details: source organism: Burkholderia mallei ATCC 23344
[9] = source organism: Influenza A virus (A/Viet Nam/HN/2004(H5N1))
[10] = source organism: Sudan ebolavirus
[11] = source organism: Dengue virus 2 Jamaica/1409/1983
[12] = source organism: Bacillus cereus G9241
[13] = source organism: Escherichia coli 536
[14] = source organism: West Nile virus
[15] = source organism: Dengue virus 3 Singapore/8120/1995
[16] = source organism: Dengue virus 3 China/80-2/1980
[17] = source organism: Coxiella burnetii
[18] = source organism: Dengue virus 4 Dominica/814669/1981
[19] = source organism: Yersinia pestis
[20] = source organism: Yersinia pestis FV-1
[21] = source organism: human gammaherpesvirus 4
[22] = source organism: Influenza A virus (A/Memphis/1/1978(H1N1))

Sequence: ISKSMRDQR
IC50 (HLA-A*11:01 [1]; source organism: Variola virus): 23300 nM

Sequence: GTFGPVHFR
Kd (HLA-A*03:01 [2]; [9]): 26 nM
Kd (HLA-A*11:01 [3]; [9]): 1.6 nM
Kd (HLA-A*31:01; source organism: Influenza A virus H3N2): ≤ 1 nM

Sequence: SATKRWGFR
IC50 (HLA-A*11:01 [1]; [10]): ≥ 119000 nM

Sequence: LVISGVFPV
Kd (HLA-A*68:02; [11]): 0.37 nM
Kd (HLA-A*02:03): 14.1 nM
Kd (HLA-A*02:17; [11]): 1.96 nM
Kd (HLA-A*02:01 [4]; [11]): 29.3 nM
Kd (HLA-A*02:06; [11]): 1.65 nM

Sequence: MLYDRINLR
Kd (HLA-A*31:01; [12]): 3.4 nM
Kd (HLA-A*03:01 [5]; [12]): 10.7 nM

Kd (HLA-A*26:01; [13]): ≥ 20000 nM
Kd (HLA-A*69:01; [13]): ≥ 20000 nM
Kd (HLA-B*51:01; [13]): ≥ 20000 nM
Kd (HLA-A*02:01 [6]): ≥ 20000 nM
Kd (HLA-B*46:01; [13]): ≥ 20000 nM
Kd (HLA-B*57:01; [13]): ≥ 20000 nM
Kd (HLA-B*18:01; [13]): ≥ 20000 nM
Kd (HLA-B*15:17; [13]): ≥ 20000 nM
Kd (HLA-B*27:03; [13]): ≥ 20000 nM
Kd (HLA-B*39:01; [13]): ≥ 20000 nM
Sequence: RAMDVYCHR

Sequence: VLRKRWTAK
Kd (HLA-A*11:01 [3]; [14]): ≥ 20000 nM
Kd (HLA-A*31:01; [14]): 58.6 nM

Kd (HLA-A*02:01 [7]): 9.9 nM
Kd (HLA-A*26:01; source organism: Homo sapiens): ≥ 20000 nM
Kd (HLA-A*69:01; source organism: Homo sapiens): ≥ 20000 nM
Kd (HLA-B*51:01; source organism: Homo sapiens): ≥ 20000 nM
Kd (HLA-B*15:01): ≥ 20000 nM
Kd (HLA-B*46:01; source organism: Homo sapiens): ≥ 20000 nM
Kd (HLA-B*57:01; source organism: Homo sapiens): ≥ 20000 nM
Kd (HLA-B*18:01; source organism: Homo sapiens): ≥ 20000 nM
Kd (HLA-B*15:17; source organism: Homo sapiens): ≥ 20000 nM
Kd (HLA-B*27:03; source organism: Homo sapiens): ≥ 20000 nM
Kd (HLA-B*39:01; source organism: Homo sapiens): ≥ 20000 nM
Sequence: FMDPGIFPR

Sequence: FGGFSTLDK
IC50 (HLA-A*11:01 [1]; source organism: Variola virus): ≥ 77700 nM

Sequence: AIDFLLRRW
IC50 (HLA-A*24:02): 38700 nM
IC50 (HLA-A*02:01 [8]): 55200 nM
IC50 (HLA-A*11:01 [1]; [10]): ≥ 156000 nM

Sequence: FVGKTVWFV
Kd (HLA-A*68:02; [15]): 1.85 nM
Kd (HLA-A*02:17; [16]): 28.7 nM
Kd (HLA-A*02:01 [4]; [16]): 4.65 nM
Kd (HLA-A*02:06; [15]): 8.76 nM

Sequence: SQIRRFNLR
Kd (HLA-A*03:01 [2]; [17]): 1230 nM
Kd (HLA-A*11:01 [3]; [17]): 13.6 nM
Kd (HLA-A*31:01; source organism: Pseudomonas putida F1): 1.02 nM

Sequence: TTPMMIQTR
IC50 (HLA-A*11:01 [1]; source organism: Vaccinia virus): 46100 nM

Sequence: LSMGLITIAV
Kd (HLA-A*68:02; [18]): 78.7 nM
Kd (HLA-A*02:17; [18]): 2410 nM
Kd (HLA-A*02:01 [4]; [18]): 79.6 nM
Kd (HLA-A*02:06; [18]): 30.5 nM

Sequence: TVNPIVTEK
Kd (HLA-A*11:01 [3]; source organism: Dengue virus): 2.3 nM
Kd (HLA-A*31:01; source organism: dengue virus type 2): 14500 nM
Kd (HLA-A*68:01): 26.5 nM

Sequence: SVQWFRLPR
Kd (HLA-A*03:01 [2]; [19]): 582 nM
Kd (HLA-A*11:01 [3]; [19]): ≤ 1 nM
Kd (HLA-B*45:06; [20]): ≥ 5000 nM
Kd (HLA-A*31:01; [20]): ≤ 0.1 nM
Kd (HLA-B*15:42; [20]): ≥ 5000 nM

Sequence: SQAAFGLPI
Kd (HLA-B*45:06; [21]): 600 nM
Kd (HLA-B*15:42; [21]): ≥ 5000 nM
Kd (HLA-B*83:01): ≥ 5000 nM

Sequence: RLFKHGLKR
Kd (HLA-A*31:01; [22]): 14.5 nM
Kd (HLA-A*03:01 [5]; [22]): 7.9 nM

Sequence: GEELPTVVL
Kd (HLA-B*15:09): ≥ 20000 nM
